According to US20100015126A1, “Methods of Binding of Cross-Beta Structures By Chaperones” (priority 2006, published 2010):

Experiments:
human BiP [1] = target: T1, human BiP (Homo sapiens, UniProt P11021); experiment: ELISA: binding of BiP-FLAG-His to immobilized (misfolded) protein ligands; conditions: ligands coated at 5 μg/ml; 6BB peptides and oxLDL 50 μg/ml
T1 construct: The human BiP gene except the signal peptide encoding region was obtained from Geneart (Germany); linker […]; made in house; host or cells: HEK 293E cells, transient transfection, PABC674 vector; secreted into the medium
Description: Enzyme Linked Immunosorbent Assay for Testing of Chaperone Binding to Misfolded Proteins
(§1) Binding of chaperones to immobilized (misfolded) protein ligands was determined using an enzyme linked immuno sorbent assay (ELISA) approach. For this purpose 50 μl/well of potential ligands at indicated concentrations or coat buffer only for control and background measurement purposes, were coated overnight at 4° C. or coated for 1 h at room temperature, with motion, in 50 mM NaHCO3 pH 9.6 (coat buffer). In general, ligands were coated at 5 μg/ml, unless stated otherwise. For example, BiP binding peptides 6BB# and oxLDL were coated at 50 μg/ml. Native haemoglobin (Sigma-Aldrich, H7379), albumin, IgIV Gammagard and ovalbumin controls were prepared from lyophilized stocks. The controls were prepared by dissolving lyophilized proteins at 1 mg/ml in PBS upon resuspending by pipetting, followed by a 30 minutes period at the roller device, at room temperature. The protein solutions were centrifuged for 10 minutes at 16,000*g and diluted in coat buffer. After coating the plates were washed at least three times with 50 mM Tris-HCl pH 7.3, 150 mM NaCl, 0.1% v/v Tween20, and blocked with Blocking reagent (Roche Diagnostics, Almere, The Netherlands; 11112589001), for 1 h at room temperature, with motion. Plates were washed three times and incubated in triplicate with indicated chaperone dilution series, at 50 μl/well, for 1 h at room temperature, with constant motion. For HSP90, 5 mM DTT is incorporated in the binding buffer (PBS/0.1% Tween20) to avoid unwanted disulfide bond formation of the HSP90. Plates were washed three times and incubated with anti-FLAG antibody (mouse antibody, M2, peroxidase conjugate; Sigma, A-8592) for BiP-FLAG-His, anti-His-tag antibody (Mouse Monoclonal Antibody, Cat. No. 70796, Novagen [0.2 mg/ml]) for HSP60, a 1:1 mix of 500-fold diluted anti-HSP90beta antibodies (Stressgen, SPA-643 [mouse monoclonal IgM], SPA-646 [rabbit polyclonal]) for HSP90 and an anti-DnaK antibody (Stressgen, 023SPA-880D [mouse monoclonal antibody]) for DnaK. After four wash cycles, secondary antibodies were added to the wells when required, 50 μl/well, for 45′ at room temperature, with motion. RAMPO and SWARPO were used at 3000 times dilution. […] In a second experiment with more immobilized misfolded proteins and controls, the detection of bound HSP90 with the mix of two anti-HSP90 antibodies was achieved by mixing 1:1500 SWARPO with 1:3000 RAMPO. After 5 washes with wash buffer followed by two washes with PBS, binding of antibodies was assessed. Bound anti-FLAG-PO, peroxidase-conjugated rabbit anti-mouse immunoglobulins (RAMPO, P0260, DAKOCytomation, Glostrup, Denmark) or peroxidase-coupled swine anti-rabbit immunoglobulins (SWARPO, P0217, DAKOCytomation) was visualized with tetramethylbenzidine (TMB, #45.01.20,/#45.014.01, Biosource, Nivelles, Belgium). The reaction was stopped after 5 minutes with 1% H2SO4 in H2O. Plates were read at 450 nm. Triplicates were averaged and standard deviations calculated. Background signals obtained with buffer-coated wells were subtracted (binding of primary antibody to empty wells), as well as background signals obtained with ligand-coated wells in which the chaperones were omitted (binding of primary and secondary antibody to coated ligands). Subsequently, sub-optimal concentrations of chaperones for binding to misfolded protein ligands are determined, and these concentrations are used for inhibition studies. […] We have previously identified that a sub-fraction of IgIV molecules has affinity for misfolded proteins comprising crossbeta structure (pending patent application). Moreover, we identified that the sub-fraction of IgIV molecules directly binds to crossbeta structure and/or crossbeta structure induced conformation (not shown; pending patent application). […]

[2] = target: T2, Escherichia coli HSP70 family member DnaK (Escherichia coli, UniProt P0A6Y8); experiment: ELISA: binding of DnaK to immobilized (misfolded) protein ligands
T2 construct: purchased Stressgen (Ann Arbor, Mich., USA) SPP-630
Description: Recombinant Escherichia coli (E. coli) DnaK was purchased from Stressgen (Ann Arbor, Mich., USA; SPP-630). For the binding studies first lot B502468 (100 μg, lot A) and then lot 05240609 (200 μg, lot B) was used.
as §1

human BiP [3] = target: T1, human BiP; experiment: Competition ELISA: BiP binding to misfolded proteins under influence of crossbeta binding compounds; conditions: fixed sub-optimal BiP concentration
Description: Binding of chaperones to immobilized (misfolded) protein ligands was determined using an enzyme linked immuno sorbent assay (ELISA) approach. For this purpose 50 μl/well of potential ligands at indicated concentrations or coat buffer only for control and background measurement purposes, were coated overnight at 4° C. or coated for 1 h at room temperature, with motion, in 50 mM NaHCO3 pH 9.6 (coat buffer). In general, ligands were coated at 5 μg/ml, unless stated otherwise. For example, BiP binding peptides 6BB# and oxLDL were coated at 50 μg/ml. Native haemoglobin (Sigma-Aldrich, H7379), albumin, IgIV Gammagard and ovalbumin controls were prepared from lyophilized stocks. The controls were prepared by dissolving lyophilized proteins at 1 mg/ml in PBS upon resuspending by pipetting, followed by a 30 minutes period at the roller device, at room temperature. The protein solutions were centrifuged for 10 minutes at 16,000*g and diluted in coat buffer. After coating the plates were washed at least three times with 50 mM Tris-HCl pH 7.3, 150 mM NaCl, 0.1% v/v Tween20, and blocked with Blocking reagent (Roche Diagnostics, Almere, The Netherlands; 11112589001), for 1 h at room temperature, with motion. Plates were washed three times and incubated in triplicate with indicated chaperone dilution series, at 50 μl/well, for 1 h at room temperature, with constant motion. For HSP90, 5 mM DTT is incorporated in the binding buffer (PBS/0.1% Tween20) to avoid unwanted disulfide bond formation of the HSP90. […] After four wash cycles, secondary antibodies were added to the wells when required, 50 μl/well, for 45′ at room temperature, with motion. RAMPO and SWARPO were used at 3000 times dilution. […] In a second experiment with more immobilized misfolded proteins and controls, the detection of bound HSP90 with the mix of two anti-HSP90 antibodies was achieved by mixing 1:1500 SWARPO with 1:3000 RAMPO. After 5 washes with wash buffer followed by two washes with PBS, binding of antibodies was assessed. Bound anti-FLAG-PO, peroxidase-conjugated rabbit anti-mouse immunoglobulins (RAMPO, P0260, DAKOCytomation, Glostrup, Denmark) or peroxidase-coupled swine anti-rabbit immunoglobulins (SWARPO, P0217, DAKOCytomation) was visualized with tetramethylbenzidine (TMB, #45.01.20,/#45.014.01, Biosource, Nivelles, Belgium). The reaction was stopped after 5 minutes with 1% H2SO4 in H2O. Plates were read at 450 nm. Triplicates were averaged and standard deviations calculated. Background signals obtained with buffer-coated wells were subtracted (binding of primary antibody to empty wells), as well as background signals obtained with ligand-coated wells in which the chaperones were omitted (binding of primary and secondary antibody to coated ligands). Subsequently, sub-optimal concentrations of chaperones for binding to misfolded protein ligands are determined, and these concentrations are used for inhibition studies.
In a subsequent study we analysed whether BiP interacts directly with the crossbeta structure, by performing ELISA binding studies with a fixed sub-optimal concentration of BiP and concentration series of crossbeta binding compounds. The results are depicted in FIGS. 12, 13 and Table 7. Binding of BiP without added crossbeta binding compounds was set to 100%.

[4] = target: T3, human mitochondrial HSP60 (Homo sapiens, UniProt P10809); experiment: ELISA: binding of HSP60 to immobilized (misfolded) protein ligands
T3 construct: Dr. W. van Eden, Utrecht University; host or cells: E. coli
Description: Recombinant human HSP60 with N-terminal His-tag was a kind gift of Dr. R. van der Zee and Prof. Dr. W. van Eden (Institute of Infectious Diseases and Immunology, Faculty of Veterinary Medicine, Utrecht University, Utrecht, The Netherlands), and was supplied in lyophilized form. The HSP60 was produced in E. coli and purified using Nickel-Sepharose. The HSP60 was lyophilized from 20-40 mM ammonium-bicarbonate solution, after purification, and stored at −20° C. The construct lacks the mitochondrial signal sequence. […] Before use, the lyophilized protein is dissolved at room temperature at 1 mg/ml in 20-40 mM NH4HCO3, resulting in a pH of 7.0. Aliquots are stored at −20° C. or −80° C. The mitochondrial HSP60 is a functional dimer of heptamers (MW(HSP60 monomer)=˜58 kDa), and is involved in multimer protein assembling and aids in transport of unfolded proteins across membranes. For the binding studies, at two occasions separate HSP60 solutions were prepared originating from the same batch of purified protein, lyophilized in separate Eppendorf cups.
Binding of chaperones to immobilized (misfolded) protein ligands was determined using an enzyme linked immuno sorbent assay (ELISA) approach. For this purpose 50 μl/well of potential ligands at indicated concentrations or coat buffer only for control and background measurement purposes, were coated overnight at 4° C. or coated for 1 h at room temperature, with motion, in 50 mM NaHCO3 pH 9.6 (coat buffer). In general, ligands were coated at 5 μg/ml, unless stated otherwise. For example, BiP binding peptides 6BB# and oxLDL were coated at 50 μg/ml. Native haemoglobin (Sigma-Aldrich, H7379), albumin, IgIV Gammagard and ovalbumin controls were prepared from lyophilized stocks. The controls were prepared by dissolving lyophilized proteins at 1 mg/ml in PBS upon resuspending by pipetting, followed by a 30 minutes period at the roller device, at room temperature. The protein solutions were centrifuged for 10 minutes at 16,000*g and diluted in coat buffer. After coating the plates were washed at least three times with 50 mM Tris-HCl pH 7.3, 150 mM NaCl, 0.1% v/v Tween20, and blocked with Blocking reagent (Roche Diagnostics, Almere, The Netherlands; 11112589001), for 1 h at room temperature, with motion. Plates were washed three times and incubated in triplicate with indicated chaperone dilution series, at 50 μl/well, for 1 h at room temperature, with constant motion. For HSP90, 5 mM DTT is incorporated in the binding buffer (PBS/0.1% Tween20) to avoid unwanted disulfide bond formation of the HSP90. Plates were washed three times and incubated with anti-FLAG antibody (mouse antibody, M2, peroxidase conjugate; Sigma, A-8592) for BiP-FLAG-His, anti-His-tag antibody (Mouse Monoclonal Antibody, Cat. No. 70796, Novagen [0.2 mg/ml]) for HSP60, a 1:1 mix of 500-fold diluted anti-HSP90beta antibodies (Stressgen, SPA-643 [mouse monoclonal IgM], SPA-646 [rabbit polyclonal]) for HSP90 and an anti-DnaK antibody (Stressgen, 023SPA-880D [mouse monoclonal antibody]) for DnaK. After four wash cycles, secondary antibodies were added to the wells when required, 50 μl/well, for 45′ at room temperature, with motion. RAMPO and SWARPO were used at 3000 times dilution. […] In a second experiment with more immobilized misfolded proteins and controls, the detection of bound HSP90 with the mix of two anti-HSP90 antibodies was achieved by mixing 1:1500 SWARPO with 1:3000 RAMPO. After 5 washes with wash buffer followed by two washes with PBS, binding of antibodies was assessed. Bound anti-FLAG-PO, peroxidase-conjugated rabbit anti-mouse immunoglobulins (RAMPO, P0260, DAKOCytomation, Glostrup, Denmark) or peroxidase-coupled swine anti-rabbit immunoglobulins (SWARPO, P0217, DAKOCytomation) was visualized with tetramethylbenzidine (TMB, #45.01.20,/#45.014.01, Biosource, Nivelles, Belgium). The reaction was stopped after 5 minutes with 1% H2SO4 in H2O. Plates were read at 450 nm. […]

T2 sequence (P0A6Y8 whole entry): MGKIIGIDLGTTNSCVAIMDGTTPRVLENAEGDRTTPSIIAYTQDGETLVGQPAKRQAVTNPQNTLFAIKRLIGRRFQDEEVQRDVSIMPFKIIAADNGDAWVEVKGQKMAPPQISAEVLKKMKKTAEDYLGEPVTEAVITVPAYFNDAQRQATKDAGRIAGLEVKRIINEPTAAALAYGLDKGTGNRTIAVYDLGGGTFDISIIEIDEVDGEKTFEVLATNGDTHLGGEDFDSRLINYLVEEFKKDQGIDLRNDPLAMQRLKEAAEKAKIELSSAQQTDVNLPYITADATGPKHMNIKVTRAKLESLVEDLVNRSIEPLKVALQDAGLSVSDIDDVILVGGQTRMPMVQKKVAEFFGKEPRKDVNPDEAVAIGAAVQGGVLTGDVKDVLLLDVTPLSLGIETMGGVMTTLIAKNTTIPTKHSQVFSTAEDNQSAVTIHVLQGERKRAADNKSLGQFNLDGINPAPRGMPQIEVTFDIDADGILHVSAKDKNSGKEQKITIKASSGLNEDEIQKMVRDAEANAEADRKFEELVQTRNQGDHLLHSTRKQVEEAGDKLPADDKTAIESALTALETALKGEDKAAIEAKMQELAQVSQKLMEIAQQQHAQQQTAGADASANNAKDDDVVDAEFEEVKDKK
T1 sequence (P11021 19-654): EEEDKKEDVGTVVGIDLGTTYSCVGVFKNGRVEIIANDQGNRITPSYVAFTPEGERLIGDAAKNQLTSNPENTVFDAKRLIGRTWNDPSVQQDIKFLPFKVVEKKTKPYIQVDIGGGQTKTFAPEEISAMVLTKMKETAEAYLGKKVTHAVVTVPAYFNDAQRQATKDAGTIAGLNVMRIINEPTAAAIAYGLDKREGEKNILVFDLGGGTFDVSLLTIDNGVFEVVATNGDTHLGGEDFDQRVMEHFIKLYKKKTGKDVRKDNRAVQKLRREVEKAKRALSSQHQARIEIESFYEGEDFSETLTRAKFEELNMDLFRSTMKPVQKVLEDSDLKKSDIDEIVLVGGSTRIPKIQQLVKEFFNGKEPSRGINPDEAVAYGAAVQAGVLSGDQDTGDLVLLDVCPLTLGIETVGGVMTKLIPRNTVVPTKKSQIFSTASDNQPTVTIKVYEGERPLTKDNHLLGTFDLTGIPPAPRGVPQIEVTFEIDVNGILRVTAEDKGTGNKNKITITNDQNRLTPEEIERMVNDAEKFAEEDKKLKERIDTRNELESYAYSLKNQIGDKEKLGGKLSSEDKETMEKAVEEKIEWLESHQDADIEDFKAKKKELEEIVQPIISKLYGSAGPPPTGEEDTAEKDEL
T3 sequence (P10809 27-573): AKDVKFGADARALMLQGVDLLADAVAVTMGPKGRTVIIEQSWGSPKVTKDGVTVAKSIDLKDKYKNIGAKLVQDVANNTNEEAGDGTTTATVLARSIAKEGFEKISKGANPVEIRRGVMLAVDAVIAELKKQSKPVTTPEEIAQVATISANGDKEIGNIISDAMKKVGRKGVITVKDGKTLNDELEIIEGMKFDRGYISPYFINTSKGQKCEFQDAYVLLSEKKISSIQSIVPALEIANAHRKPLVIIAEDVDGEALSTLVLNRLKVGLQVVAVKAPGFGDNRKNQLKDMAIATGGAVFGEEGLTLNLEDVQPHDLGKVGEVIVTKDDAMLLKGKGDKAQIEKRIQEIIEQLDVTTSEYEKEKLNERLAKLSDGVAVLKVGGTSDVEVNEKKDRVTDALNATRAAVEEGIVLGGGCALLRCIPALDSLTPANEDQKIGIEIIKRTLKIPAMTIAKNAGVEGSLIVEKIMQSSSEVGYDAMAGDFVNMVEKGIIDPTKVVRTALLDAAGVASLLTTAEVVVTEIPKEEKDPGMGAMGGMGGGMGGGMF

Substance	Binding of concentration series of BiP to coated ligand (human BiP [1])	Binding of concentration series of DnaK to coated ligand [2]	Influence of Congo red on interaction of BiP with misfolded protein (human BiP [3]; concentration series of Congo red)	Influence of ThS on interaction of BiP with misfolded protein (human BiP [3]; concentration series of ThS)	Influence of ThT on interaction of BiP with misfolded protein (human BiP [3]; concentration series of ThT)	Binding of concentration series of HSP60 to coated ligand [4]
FWGLWPWE [6BB11]	has been established	did not bind	↓ (a ↓ sign refers to inhibited abolished binding of BiP)	↓ (a ↓ sign refers to inhibited abolished binding of BiP)	↓ (a ↓ sign refers to inhibited abolished binding of BiP)	
RRRAA [6BB13]	no BiP binding was observed	did not bind				
YVDRFIGW [6BB8]	no BiP binding was observed	did not bind				
fibrin: fibrin immobilized in wells from fibrinogen and factor IIa	has been established	has been established				has been established
